The labels stand for the following.
B1: CPEB3 Ribozyme (parent)
chain: GGGGGCCACAGCAGAAGCGUUCACGUCGCGGCCCCUGUCAGAUUCUGGUGAAUCUGCGAAUUCUGCUGU

In the data set the parent is B1. Kind of data set: self-cleavage, relative activity (ratio to wild type); higher = more cleavage; co-transcriptional.
Take U21G A40C: the self-cleavage came out at 0.222. Regarding U21C C27G, the self-cleavage came out at 0.209. Next, C22A U36C: 0.169; U20G C27G: 0.177; U20G C27A: 0.105.

Consider U21A G50U, for which the self-cleavage worked out at 0.971.

Regarding C22A A59G, the self-cleavage worked out at 0.232. For C22A A59C the value was 0.192; for C22A A59U, 0.198. Next, U20C C22A: 0.201. For C22U A40C the value was 0.165; for C22U A40G, 0.266. As to C22U A40U, the self-cleavage was found to be 0.184.

Consider U21G G56A, for which the self-cleavage was 0.774. For U21G G56C the value was 0.495; for U20G C29U, 0.137.

U21G G31C: the self-cleavage came out at 0.181.

Turning to U21G C29A, the self-cleavage stood at 0.242.

Consider U21A C29A, for which the self-cleavage is 0.686. For C22U A59G the value was 0.324; for C22A G56U, 0.151; for U21A G48C, 1.01. C22A G37A: the self-cleavage came out at 0.212.

On to C22G C66U, for which the self-cleavage stood at 0.182. As for C22G G28A, the self-cleavage amounted to 0.16. U20G G37U: the self-cleavage came to 0.182. Regarding U20C U69G, the self-cleavage amounted to 0.394. Turning to U20G C24A, the self-cleavage was found to be 0.128. Take U21C C24A: the self-cleavage turned out to be 0.376.

Consider C22G G48C, for which the self-cleavage is 0.212. Take U20G A59C: the self-cleavage came to 0.1. On to C22G C24U, for which the self-cleavage was found to be 0.182. For C22G C24G, the self-cleavage came to 0.0697. Next, U21G A60C: 0.235. Next, U20C G56C: 0.203; U20C G56U: 0.127; C22A U38C: 0.151. For U21A U55G the value was 0.811; for U21A U55A, 0.916; for C22A C24A, 0.0966.

In the case of U20C G68C, the self-cleavage came out at 0.211. For U20C G68U the value was 0.195; for U20C G50A, 0.174. As to U20C G50C, the self-cleavage worked out at 0.102.

With C22U C66U, the self-cleavage is 0.33. For C22A G68A, the self-cleavage amounted to 0.247.

Turning to C22A G68U, the self-cleavage was 0.264.

In the case of C22A G68C, the self-cleavage stood at 0.27. Next, C22G G37C: 0.956; C22G G37A: 0.174; U21G A52C: 0.459. For U21A C39A the value was 0.911.

In the case of C22G U64G, the self-cleavage came out at 0.157. For U21A G31C, the self-cleavage was 0.221.

In the case of U21G U53A, the self-cleavage came to 0.473. For C22A A42U the value was 0.181. For U21C U69A the value was 0.885. For U21C U69G the value was 0.933; for U21C U43C, 0.875. For the variant C22A A60U, the self-cleavage was determined as 0.222. With C22A A60G, the self-cleavage was determined as 0.279. For U21C G28A the value was 0.192.

As for U21C U62A, the self-cleavage turned out to be 0.661. U20G U44C: the self-cleavage is 0.199. Regarding U20G U44A, the self-cleavage turned out to be 0.271. Next, U21A C32U: 0.993.

With U21A C32A, the self-cleavage worked out at 0.808. For U20G G50U the value was 0.239. For U21G G68C the value was 0.783; for U21G G68U, 0.701; for C22U U43C, 0.295. Take U21G U61A: the self-cleavage was determined as 0.319. For C22A A51C the value was 0.176; for C22G U69A, 0.242. Turning to C22G U69G, the self-cleavage turned out to be 0.349. For U20C C24A the value was 0.191; for U20C C24U, 0.18; for U20C C24G, 0.146. Next, U20C U55G: 0.203; U20C U55C: 0.139. Consider U21C G48A, for which the self-cleavage was found to be 0.933. For U20G G25C the value was 0.227. Next, U20C C54A: 0.156. In the case of U21C C45G, the self-cleavage amounted to 0.864. With U20C G37C, the self-cleavage is 0.0963.

Take U21A U62C: the self-cleavage was found to be 0.844. For the variant C22A G58C, the self-cleavage was found to be 0.184. Next, U21C G37A: 0.261.

Regarding U21C G37U, the self-cleavage was found to be 0.264.

Turning to U21C A23G, the self-cleavage was found to be 0.76.

Take U20C U44G: the self-cleavage stood at 0.149.

As to U20C U44C, the self-cleavage amounted to 0.123. C22A A23G: the self-cleavage is 0.198. For C22A A23U the value was 0.281. For U21C G31A the value was 0.569; for U21C G31C, 0.16. Next, U20G G65C: 0.166; C22G C29A: 0.258; U21G G28C: 0.162. Consider U21G G28A, for which the self-cleavage was found to be 0.245.

Regarding C22G G56A, the self-cleavage came to 0.241. Take C22G G56C: the self-cleavage amounted to 0.158. As for C22A U53C, the self-cleavage came to 0.239. Next, C22U C39U: 0.179; U21C C66A: 0.611; U21C U64A: 0.706.

Regarding C22U A52U, the self-cleavage was 0.315.

In the case of C22A C57A, the self-cleavage amounted to 0.174. Consider U20G U46G, for which the self-cleavage came to 0.189. U20G G30U: the self-cleavage was 0.191. Take U20G G30C: the self-cleavage was found to be 0.212. Next, U21G C39A: 0.396; U21G C39U: 0.61; U21G C57G: 0.235.

Take U20G G31U: the self-cleavage was determined as 0.128. For the variant C22G U61A, the self-cleavage is 0.181. For U21A G68A the value was 1.02; for U21A C34G, 0.606; for C22A C34U, 0.219.

Turning to C22A C34G, the self-cleavage stood at 0.175. Turning to C22A U43C, the self-cleavage came out at 0.167. Take C22A A52C: the self-cleavage was found to be 0.173. Consider C22G C34U, for which the self-cleavage was 0.203. Consider C22U G37U, for which the self-cleavage came out at 0.181. With U21C U46C, the self-cleavage amounted to 0.89. For U20C C66G the value was 0.179. Consider U20G U67A, for which the self-cleavage was 0.223.

Turning to U20G U67C, the self-cleavage was 0.237. For U20G C66A the value was 0.23; for U20G C66G, 0.15. For U21C C33G the value was 0.217. With U21C C33A, the self-cleavage is 0.516.

As for U20C G28U, the self-cleavage is 0.208.

Turning to U21G G47A, the self-cleavage amounted to 0.715. For U21G G47U the value was 0.638; for U21G G47C, 0.818.

For U21G U46C, the self-cleavage came out at 0.635. Next, C22A C33G: 0.168; U21C C35A: 0.229; U20C U62A: 0.133. Next, U20C U62G: 0.278; C22U A51U: 0.295.

With U21C C39G, the self-cleavage stood at 0.895. Regarding U20C U21C, the self-cleavage was 0.197. Next, U20C U21G: 0.211; U21G G30C: 0.232. For U21G G30A the value was 0.221; for U21G G30U, 0.214; for C22U G68U, 0.51. In the case of U21G U67A, the self-cleavage turned out to be 0.549. For U21G U67C the value was 0.458. Next, U20G U69A: 0.264; C22G A40C: 0.23.

In the case of C22G A40G, the self-cleavage amounted to 0.204.

As for C22G A40U, the self-cleavage was determined as 0.105. With U21A G37C, the self-cleavage was found to be 0.217. For U21A G37A, the self-cleavage was found to be 0.283. For U20G U43G the value was 0.153; for U21C A51G, 0.914. For the variant U21G C35U, the self-cleavage is 0.361.

For U21G C35G, the self-cleavage turned out to be 0.225. For U20G C57G the value was 0.181; for U20G C57A, 0.124; for U21C C29A, 0.274. For C22A G30A the value was 0.167; for C22A G25C, 0.255; for U21G G58A, 0.281.
